# Measurements from PMC5664961 (Biochemical Journal, 2017).
# What was measured:
# [1] = biological target: the molecule itself; assay: SEC-MALS; BTB domains alone, injected at 50 µM; Shodex KW-803; 50 mM HEPES pH 7.5, 150 mM NaCl, 1 mM TCEP
# [2] = biological target: the molecule itself; assay: crystal structure; BTB domains alone, sitting-drop vapour diffusion at 20 and 4°C, data at 100 K
# [3] = biological target: T1, human Cul3 N-terminal domain (NTD, residues M1-L388) with the engineered mutations I342R and L346D (human, UniProt Q13618 1-388, I342R | L346D); assay: ITC; KCTD5 titrated into Cul3 in the cell; 25°C; 50 mM HEPES pH 7.5, 150 mM NaCl, 1 mM TCEP, 5% glycerol; single-binding site model; details: both partners purified
# T1 construct: Cullin-3, human, UniProt Q13618, N-terminal domain residues M1-L388, with the stabilising mutations I342R and L346D; The methods say in general that the eluted His-tagged proteins were cleaved with TEV protease; also called Cullin3; Cul3 NTD; source: E. coli BL21(DE3)R3-pRARE2, purified (nickel-sepharose, TEV cleavage, SEC)
# [4] = biological target: T1, human Cul3 N-terminal domain (NTD, …); assay: ITC; KCTD protein titrated into Cul3 in the cell; 15°C; 50 mM HEPES pH 7.5, 150 mM NaCl, 1 mM TCEP, 5% glycerol; single-binding site model; details: both partners purified
# [5] = biological target: T2, human Cul3 N-terminal domain (NTD, residues M1-L388) with the engineered mutations I342R and L346D (human, UniProt Q13618 1-388, I342R | L346D); assay: ITC; KCTD protein titrated into Cul3 NTD; 15°C; 50 mM HEPES pH 7.5, 150 mM NaCl, 1 mM TCEP, 5% glycerol; single-binding site model; details: both partners purified
# T2 construct: Cullin-3, human, UniProt Q13618, N-terminal domain residues M1-L388, with I342R and L346D introduced to stabilize the isolated Cullin-repeat domain; only the vector pNIC-CTHF is named, the tag is inferred from it; The general methods say that eluted proteins were cleaved with TEV protease; also called Cullin3; Cul3 NTD; source: E. coli BL21(DE3)R3-pRARE2, purified (nickel-sepharose, SEC)
# [6] = biological target: T2, human Cul3 N-terminal domain (NTD, …); assay: SAXS; KCTD-Cul3 complexes co-purified over S200, ~10% more Cul3 added, 10 mg/ml injected onto Shodex KW404 at 20°C; 50 mM HEPES pH 7.5, 150 mM NaCl, 1 mM TCEP, 5% glycerol; curves compared with a 5 : 5 model; details: both partners purified
# [7] = biological target: the molecule itself; assay: as above
# [8] = biological target: T2, human Cul3 N-terminal domain (NTD, …); assay: ITC; KCTD5 titrated into Cul3 NTD; 25°C; 50 mM HEPES pH 7.5, 150 mM NaCl, 1 mM TCEP, 5% glycerol; single-binding site model; details: both partners purified
# [9] = biological target: T2, human Cul3 N-terminal domain (NTD, …); assay: SEC; KCTD protein alone and mixed with Cul3 NTD at a molar ratio of 1 : 1; UV 280 nm traces; injected at 50 µM; 50 mM HEPES pH 7.5, 150 mM NaCl, 1 mM TCEP; details: both partners purified
binder,measurement,setting,value
"human KCTD16 BTB domain (residues G16-E133) (domain or fragment, UniProt Q68DU8 16-133, looked up, KCTD16, human, UniProt Q68DU8, BTB domain residues G16-E133; cleaved with TEV protease by the general methods; source: E. coli BL21(DE3)R3-pRARE2, purified (nickel-sepharose, TEV cleavage, SEC); not shown: His6, N-terminal, cleaved) GSAVPNSFPEVVELNVGGQVYFTRHSTLISIPHSLLWKMFSPKRDTANDLAKDSKGRFFIDRDGFLFRYILDYLRDRQVVLPDHFPEKGRLKREAEYFQLPDLVKLLTPDEIKQSPDE",stoichiometry N,[1],5
"human KCTD10 BTB domain (residues G26-E135) with F61L (domain or fragment, UniProt Q9H3F6 26-135, looked up, KCTD10, human, UniProt Q9H3F6, BTB domain residues G26-E135; cleaved with TEV protease by the general methods; source: E. coli BL21(DE3)R3-pRARE2, purified (nickel-sepharose, TEV cleavage, SEC); not shown: His6, N-terminal, cleaved) GTSPSSKYVKLNVGGALYYTTMQTLTKQDTMLKAMLSGRMEVLTDSEGWILIDRCGKHFGTILNYLRDGAVPLPESRREIEELLAEAKYYLVQGLVEECQAALQNKDTYE",stoichiometry N,[2],4
"KCTD5 BTB domain (residues G40-R145) (domain or fragment, Pentamer by SEC-MALS; TEV cleavage stated in general in the methods; source: E. coli BL21(DE3)R3-pRARE2, purified (nickel-sepharose, TEV cleavage, SEC); not shown: His6, N-terminal, cleaved) not shown",Ka,[3],1.8e+07 M⁻¹
same,stoichiometry N,[3],0.81
"KCTD13 BTB domain (residues G27-L144) (domain or fragment, human, UniProt Q8WZ19 27-144, looked up, TEV cleavage stated in general in the methods; also called BACURD1; source: E. coli BL21(DE3)R3-pRARE2, purified (nickel-sepharose, TEV cleavage, SEC); not shown: His6, N-terminal, cleaved) GPAAYGLKPLTPNSKYVKLNVGGSLHYTTLRTLTGQDTMLKAMFSGRVEVLTDAGGWVLIDRSGRHFGTILNYLRDGSVPLPESTRELGELLGEARYYLVQGLIEDCQLALQQKRETL",Ka,[4],1.01e+07 M⁻¹
same,stoichiometry N,[4],0.87
"human KCTD13 BTB domain (residues G27-L144) (domain or fragment, UniProt Q8WZ19 27-144, looked up, KCTD13, human, UniProt Q8WZ19, BTB domain residues G27-L144; cleaved with TEV protease by the general methods; also called BACURD1; source: E. coli BL21(DE3)R3-pRARE2, purified (nickel-sepharose, TEV cleavage, SEC); not shown: His6, N-terminal, cleaved) GPAAYGLKPLTPNSKYVKLNVGGSLHYTTLRTLTGQDTMLKAMFSGRVEVLTDAGGWVLIDRSGRHFGTILNYLRDGSVPLPESTRELGELLGEARYYLVQGLIEDCQLALQQKRETL",stoichiometry N,[2],4
same,Kd,[5],100 nM
same,stoichiometry N,[6],1 KCTD : Cul3 (5 : 5)
same,stoichiometry N,[7],5
"KCTD5 BTB + CTD multi-domain construct (residues G40-M234) (domain or fragment, human, UniProt Q9NXV2 40-234, looked up, TEV cleavage stated in general in the methods; source: E. coli BL21(DE3)R3-pRARE2, purified (nickel-sepharose, TEV cleavage, SEC); not shown: His6, N-terminal, cleaved) GSVSKWVRLNVGGTYFLTTRQTLCRDPKSFLYRLCQADPDLDSDKDETGAYLIDRDPTYFGPVLNYLRHGKLVINKDLAEEGVLEEAEFYNITSLIKLVKDKIRERDSKTSQVPVKHVYRVLQCQEEELTQMVSTMSDGWKFEQLVSIGSSYNYGNEDQAEFLCVVSKELHNTPYGTASEPSEKAKILQERGSRM",Ka,[3],7.95e+08 M⁻¹
same,stoichiometry N,[3],0.94
"human KCTD5 BTB + CTD multi-domain construct (residues G40-M234) (domain or fragment, UniProt Q9NXV2 40-234, looked up, KCTD5, human, UniProt Q9NXV2, BTB + CTD residues G40-M234; cleaved with TEV protease by the general methods; also called multi-domain KCTD5; source: E. coli BL21(DE3)R3-pRARE2, purified (nickel-sepharose, TEV cleavage, SEC); not shown: His6, N-terminal, cleaved) GSVSKWVRLNVGGTYFLTTRQTLCRDPKSFLYRLCQADPDLDSDKDETGAYLIDRDPTYFGPVLNYLRHGKLVINKDLAEEGVLEEAEFYNITSLIKLVKDKIRERDSKTSQVPVKHVYRVLQCQEEELTQMVSTMSDGWKFEQLVSIGSSYNYGNEDQAEFLCVVSKELHNTPYGTASEPSEKAKILQERGSRM",Kd,[8],1 nM
"SHKBP1 BTB domain (residues G18-S120) (domain or fragment, human, UniProt Q8TBC3 18-120, looked up, TEV cleavage stated in general in the methods; source: E. coli BL21(DE3)R3-pRARE2, purified (nickel-sepharose, TEV cleavage, SEC); not shown: His6, N-terminal, cleaved) GEVIHLNVGGKRFSTSRQTLTWIPDSFFSSLLSGRISTLKDETGAIFIDRDPTVFAPILNFLRTKELDPRGVHGSSLLHEAQFYGLTPLVRRLQLREELDRSS",Ka,[4],1.15e+07 M⁻¹
same,stoichiometry N,[4],0.92
"human SHKBP1 BTB domain (residues G18-S120) (domain or fragment, UniProt Q8TBC3 18-120, looked up, cleaved with TEV protease by the general methods; source: E. coli BL21(DE3)R3-pRARE2, purified (nickel-sepharose, TEV cleavage, SEC); not shown: His6, N-terminal, cleaved) GEVIHLNVGGKRFSTSRQTLTWIPDSFFSSLLSGRISTLKDETGAIFIDRDPTVFAPILNFLRTKELDPRGVHGSSLLHEAQFYGLTPLVRRLQLREELDRSS",Kd,[5],87 nM
same,stoichiometry N,[9],1 KCTD : Cul3 (5 : 5)
"human KCTD5 BTB domain (residues G40-R145) (domain or fragment, KCTD5, human, UniProt Q9NXV2, BTB domain residues G40-R145; cleaved with TEV protease by the general methods; source: E. coli BL21(DE3)R3-pRARE2, purified (nickel-sepharose, TEV cleavage, SEC); not shown: His6, N-terminal, cleaved) not shown",stoichiometry N,[1],5
same,Kd,[8],55 nM
